The values below come from article PMC10234109 (2023).

The target of this experiment is T1, HCBD–GST (helical cargo-binding domain of mouse Myo6, residues 1052–1096) (Mus musculus (Mouse), UniProt Q64331).
T1 chain: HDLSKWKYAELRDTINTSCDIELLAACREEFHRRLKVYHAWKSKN
The experiment in a line: GST pulldown, Coomassie-stained gel.

B1: GIPC3 PDZ-GH2 domains (93–297), MBP-tagged (protein)
chain: GETKEVEVTKTEDALGLTITDNGAGYAFIKRIKEGSIINRIEAVCVGDSIEAINDHSIVGCRHYEVAKMLRELPKSQPFTLRLVQPRRAFDMIGQRSRSSKCPVEAKVSSGRETLRLRSGGAATVEEAPSDVEAAAARRVDDLLESYMGIRDPELAAAVVETARSSAGAQAFARGLDAVLGEFAFPDEFVVEVWAAIGEAHDACG
On to B1, for which the binding result was “binds”.

B2: GIPC3 PDZ (93–181), MBP-tagged (protein)
chain: GETKEVEVTKTEDALGLTITDNGAGYAFIKRIKEGSIINRIEAVCVGDSIEAINDHSIVGCRHYEVAKMLRELPKSQPFTLRLVQPRRA
On to B2, for which the binding result is given as “no binding”.
